{
  "source": "patent US20200371101A1",
  "about": "(Regeneron, published 2020)",
  "binders": {"B1": {"name": "Inh-PEG4-wyry (other)", "peptide": "[Pra][dW][dY][dR][dY]-Az4", "modifications": "triazole N-C; numbers in words are those of the source; reading uncertain; also: small molecule Inh joined via PEG4 linker, attachment point not given here"}, "B2": {"name": "Inh-PEG6-wyry (other)", "peptide": "{Inh-PEG6′}-[Pra][dW][dY][dR][dY]-Az4", "modifications": "triazole N-C; numbers in words are those of the source; reading uncertain; also: Inh joined through PEG6 linker, printed as Inh-PEG6-wyry"}, "B3": {"name": "Inh-PEG8-wyry (other)", "peptide": "{Inh-PEG8′}-[Pra][dW][dY][dR][dY]-Az4", "modifications": "triazole N-C; numbers in words are those of the source; reading uncertain; also: Inh joined through PEG8 linker, printed as Inh-PEG8-wyry"}, "B4": {"name": "Deprotected-Inh-Gly2-wyvay (other)", "peptide": "Inh-GG[dW][dY][dV][dA][dY]", "modifications": "triazole (positions not given here); not fully specified (residue 2, C-terminus); printed as Deprotected-Inh-Gly2-wyvay; reading uncertain; also: IDO1 inhibitor Inh on the Gly2 linker, ring closed by triazole between flanking Pra and Az4"}, "B5": {"name": "ww(F-Phe) (peptide)", "chain": "{Biotin-PEG3′}-[dW]-[dW]-[Phe(4-F)]", "modifications": "triazole (positions not given here); also: triazole-cyclised"}, "B6": {"name": "(F-Phe)n(Me-Trp)(Me-Trp)w macrocycle (peptide)", "peptide": "[Pra][Phe(4-F)][dN][Trp(1-Me)][Trp(1-Me)][dW]-Az4", "modifications": "triazole N-C; reading uncertain; also: biotinylated for ELISA, site not given here, printed as (F-Phe)n(Me-Trp)(Me-Trp)w"}, "B7": {"name": "w(Ph-Tyr)(Me-Val)G(Me-Phe) (peptide)", "peptide": "[dW][Ph‑Tyr][Me‑Val]G[Me‑Phe]", "modifications": "not fully specified; printed as w(Ph-Tyr)(Me-Val)G(Me-Phe)", "notes": "Modified version of wyvay"}},
  "key": {"[1]": {"molecular_target": "T1, His-tagged IDO1 human recombinant protein (71182, BPS Biosciences) (human, UniProt P14902 2-403)", "T1 sequence (P14902 2-403 limits assumed)": "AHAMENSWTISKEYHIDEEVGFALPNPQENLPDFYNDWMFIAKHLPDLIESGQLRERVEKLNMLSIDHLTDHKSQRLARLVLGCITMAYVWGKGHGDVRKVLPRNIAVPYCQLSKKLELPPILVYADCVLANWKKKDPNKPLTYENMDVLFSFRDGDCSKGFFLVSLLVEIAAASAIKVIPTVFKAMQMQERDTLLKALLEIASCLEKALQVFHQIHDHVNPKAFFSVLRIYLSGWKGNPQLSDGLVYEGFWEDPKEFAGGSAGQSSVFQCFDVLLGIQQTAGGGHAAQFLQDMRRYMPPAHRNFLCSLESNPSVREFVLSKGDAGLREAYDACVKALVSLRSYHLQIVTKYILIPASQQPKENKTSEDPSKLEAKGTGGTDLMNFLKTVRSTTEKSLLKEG", "assay": "cell-based or functional assay"}, "[2]": {"molecular_target": "T1, His-tagged IDO1 human recombinant …", "assay": "cell-based or functional assay", "remark": "listed apart in the source"}, "[3]": {"molecular_target": "IDO1 in HeLa cells stimulated with IFNγ (UniProt P14902 1-403, limits assumed)", "sequence (P14902 whole entry)": "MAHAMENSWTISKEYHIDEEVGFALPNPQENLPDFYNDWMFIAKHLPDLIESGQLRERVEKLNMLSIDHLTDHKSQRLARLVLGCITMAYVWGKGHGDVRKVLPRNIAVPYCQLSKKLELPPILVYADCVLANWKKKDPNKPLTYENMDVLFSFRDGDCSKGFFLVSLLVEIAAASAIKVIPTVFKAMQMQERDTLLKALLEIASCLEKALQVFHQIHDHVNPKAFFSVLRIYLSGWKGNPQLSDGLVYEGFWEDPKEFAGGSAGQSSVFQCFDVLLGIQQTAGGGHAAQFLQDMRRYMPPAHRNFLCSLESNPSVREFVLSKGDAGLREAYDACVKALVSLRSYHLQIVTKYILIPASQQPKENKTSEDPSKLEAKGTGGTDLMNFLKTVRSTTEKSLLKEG", "assay": "cell-based or functional assay"}, "[4]": {"molecular_target": "T1, His-tagged IDO1 human recombinant …", "assay": "cell-based or functional assay", "remark": "listed apart in the source"}, "[5]": {"molecular_target": "T1, His-tagged IDO1 human recombinant …", "assay": "ELISA: biotin-PEG3 macrocycle on NeutrAvidin plate, His-tagged human IDO1 titrated, AP-conjugated anti-6XHis antibody, fluorescence"}, "[6]": {"molecular_target": "T1, His-tagged IDO1 human recombinant …", "assay": "ELISA: biotinylated peptide on NeutrAvidin plate, 6xHis-tagged human IDO1 titrated", "experimental": "The plate was aspirated and then washed with Wash Buffer (0.05% (v/v) Tween-20 in PBS, 6×). His-tagged IDO1 human recombinant protein (71182, BPS Biosciences) was serially diluted in Wash Buffer (from 200 to 0 nM) and incubated in the designated microwells for 1 h at room temperature. […] (ab49746, Abcam) was prepared at 1:10,000 dilution and added to the microwells for 1 h at room temperature. The plate was aspirated and washed with Wash Buffer (5×). AttoPhos® AP Fluorescent Substrate System (S1000, Promega) was employed to develop the microwells. Using an excitation wavelength of 430 nm, fluorescent emission at 535 nm was recorded by Beckman Coulter DTX880 photometer."}, "[7]": {"molecular_target": "T1, His-tagged IDO1 human recombinant …", "assay": "binding affinity, assay not named"}},
  "note": "Like-named read-outs stand apart in the source and are kept apart here. Bridge positions count the residues as written; N and C are the ends. Square brackets hold non-standard residues; d marks the D form. Primed or numbered codes have the meaning given here. Ends that are not written are not given here. * marks the point of attachment. Biotin = O=C1N[C@H]2[C@H](CS[C@H]2CCCCC(=O)*)N1; PEG6′ = PEG linker with 6 ethylene glycol units; PEG8′ = PEG linker with 8 ethylene glycol units; Trp(1-Me) = Cn1cc(C[C@H](N)C(=O)O)c2ccccc21; Phe(4-F) = N[C@@H](Cc1ccc(F)cc1)C(=O)O; Me‑Phe = methyl phenylalanine; PEG3′ = not defined here; Ph‑Tyr = phenyl tyrosine; Pra = C#CC[C@H](N)C(=O)O; Az4 = not defined here; Inh = not defined here; Me‑Val = methyl valine",
  "data": [
    {"binder": "B1", "values": [
      {"measurement": "IC50, IDO1 inhibition assay", "setting": "[1]", "value": 871, "unit": "nM"}
    ]},
    {"binder": "B2", "values": [
      {"measurement": "IC50, IDO1 inhibition assay", "setting": "[1]", "value": 338, "unit": "nM"},
      {"measurement": "Inhibition Recombinant IDO1 IC50", "setting": "[2]", "value": 338, "unit": "nM"},
      {"measurement": "% inhibition at 8 µM, HeLa", "setting": "[3]", "value": 47.8, "unit": "%"}
    ]},
    {"binder": "B3", "values": [
      {"measurement": "IC50, IDO1 inhibition assay", "setting": "[1]", "value": 3740, "unit": "nM"}
    ]},
    {"binder": "B4", "values": [
      {"measurement": "IC50, IDO1 inhibition assay", "setting": "[4]", "value": 1010, "unit": "nM"}
    ]},
    {"binder": "B5", "values": [
      {"measurement": "EC50", "setting": "[5]", "value": 96, "unit": "nM"}
    ]},
    {"binder": "B6", "values": [
      {"measurement": "EC50", "setting": "[6]", "value": 100, "unit": "nM"}
    ]},
    {"binder": "B7", "values": [
      {"measurement": "EC50", "setting": "[7]", "value": 18, "unit": "nM"}
    ]}
  ]
}
